# Test results: patent publication US20230257473A1 (TENEOBIO, published 2023)
# B1: AntiX**BCMA_F7E_F7E (bispecific antibody, part only; not given: other chains of three-chain format, not shown: another chain or arm of the molecule)
# tandem VH: QVQLVESGGGLVQPGGSLRLSCVASGFTFSSNAMSWVRQAPGKGLEWVSAISGSGDYTHYSDSVKGRFTISRDNSKNTLYLQMNSLRAEDTAVYYCAKEVPGGPLVDFDSRGQGTLVTVSSGGGGSGGGGSQVQLVESGGGLVQPGGSLRLSCVASGFTFSSNAMSWVRQAPGKGLEWVSAISGSGDYTHYSDSVKGRFTISRDNSKNTLYLQMNSLRAEDTAVYYCAKEVPGGPLVDFDSRGQGTLVTVSS
# B2: anti-BCMA heavy chain-only antibody (UniAb) with the VH of SEQ ID NO: 12 (antibody, V domains shown)
# VH: QVQLVESGGGLVQPGGSLRLSCVASGFTFSSNAMSWVRQAPGKGLEWVSAISGSGDYTHYSDSVKGRFTISRDNSKNTLYLQMNSLRAEDTAVYYCAKEVPGGPLVDFDSRGQGTLVTVSS
# notes: Heavy chain-only antibody from UniRat; also called Clone ID No: 316302
# Legend:
# [1] = target: recombinant BCMA (R&D Systems, catalog no. 193-BC) (human) (UniProt Q02223); assay: competitive ELISA, plate-bound BCMA; Ab 2.000 ng/mL; competitor APRIL 7.81 ng/mL
# recombinant BCMA (R&D Systems, catalog no. 193-BC) (human), sequence (Q02223 5-51 limits assumed): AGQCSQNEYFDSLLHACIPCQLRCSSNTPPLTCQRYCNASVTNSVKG
# [2] = target: recombinant BCMA (R&D Systems, catalog no. 193-BC) (human) (UniProt Q02223); assay: competitive ELISA, plate-bound BCMA; Ab 200.000 ng/mL; competitor APRIL 31.25 ng/mL
# [3] = target: recombinant BCMA (R&D Systems, catalog no. 193-BC) (human) (UniProt Q02223); assay: competitive ELISA, plate-bound BCMA; Ab 0.200 ng/mL; competitor APRIL 125.00 ng/mL
# [4] = target: recombinant BCMA (R&D Systems, catalog no. 193-BC) (human) (UniProt Q02223); assay: competitive ELISA, plate-bound BCMA; Ab 0.002 ng/mL; competitor APRIL 0.00 ng/mL
# [5] = target: BCMA on BCMA-expressing cells (H929 / NCI-H929, MM1.S, U266, Daudi) (human) (UniProt Q02223); assay: flow cytometry on MM1.S cells; antibody 0.098 ng/ml
# BCMA on BCMA-expressing cells (H929 / NCI-H929, MM1.S, U266, Daudi) (human), sequence (Q02223 whole entry): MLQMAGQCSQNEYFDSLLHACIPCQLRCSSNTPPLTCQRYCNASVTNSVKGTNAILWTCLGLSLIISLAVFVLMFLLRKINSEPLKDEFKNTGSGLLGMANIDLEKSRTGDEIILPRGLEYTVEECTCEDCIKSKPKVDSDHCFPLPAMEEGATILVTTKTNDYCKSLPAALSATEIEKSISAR
# [6] = target: BCMA on BCMA-expressing cells (H929 / NCI-H929, MM1.S, U266, Daudi) (human) (UniProt Q02223); assay: flow cytometry on MM1.S cells; antibody 200.000 ng/ml
# [7] = target: BCMA on BCMA-expressing cells (H929 / NCI-H929, MM1.S, U266, Daudi) (human) (UniProt Q02223); assay: flow cytometry on MM1.S cells; antibody 0.781 ng/ml
# [8] = target: recombinant BCMA (R&D Systems, catalog no. 193-BC) (human) (UniProt Q02223); assay: competitive ELISA, plate-bound BCMA; Ab 0.200 ng/mL; competitor APRIL 250.00 ng/mL
# [9] = target: BCMA on BCMA-expressing cells (H929 / NCI-H929, MM1.S, U266, Daudi) (human) (UniProt Q02223); assay: flow cytometry on MM1.S cells; antibody 50.000 ng/ml
# [10] = target: recombinant BCMA (R&D Systems, catalog no. 193-BC) (human) (UniProt Q02223); assay: competitive ELISA, plate-bound BCMA; Ab 0.020 ng/mL; competitor APRIL 0.00 ng/mL
# [11] = target: recombinant BCMA (R&D Systems, catalog no. 193-BC) (human) (UniProt Q02223); assay: competitive ELISA, plate-bound BCMA; Ab 20.000 ng/mL; competitor APRIL 31.25 ng/mL
# [12] = target: recombinant BCMA (R&D Systems, catalog no. 193-BC) (human) (UniProt Q02223); assay: competitive ELISA, plate-bound BCMA; Ab 200.000 ng/mL; competitor APRIL 0.00 ng/mL
# [13] = target: recombinant BCMA (R&D Systems, catalog no. 193-BC) (human) (UniProt Q02223); assay: competitive ELISA, plate-bound BCMA; Ab 0.020 ng/mL; competitor APRIL 250.00 ng/mL
# [14] = target: BCMA on BCMA-expressing cells (H929 / NCI-H929, MM1.S, U266, Daudi) (human) (UniProt Q02223); assay: flow cytometry on H929 cells; antibody 200.000 ng/ml
# [15] = target: recombinant BCMA (R&D Systems, catalog no. 193-BC) (human) (UniProt Q02223); assay: competitive ELISA, plate-bound BCMA; Ab 0.002 ng/mL; competitor APRIL 15.63 ng/mL
# [16] = target: recombinant BCMA (R&D Systems, catalog no. 193-BC) (human) (UniProt Q02223); assay: competitive ELISA, plate-bound BCMA; Ab 20.000 ng/mL; competitor APRIL 250.00 ng/mL
# [17] = target: recombinant BCMA (R&D Systems, catalog no. 193-BC) (human) (UniProt Q02223); assay: competitive ELISA, plate-bound BCMA; Ab 20.000 ng/mL; competitor APRIL 15.63 ng/mL
# [18] = target: recombinant BCMA (R&D Systems, catalog no. 193-BC) (human) (UniProt Q02223); assay: competitive ELISA, plate-bound BCMA; Ab 0.002 ng/mL; competitor APRIL 31.25 ng/mL
# [19] = target: BCMA on BCMA-expressing cells (H929 / NCI-H929, MM1.S, U266, Daudi) (human) (UniProt Q02223); assay: flow cytometry on H929 cells; antibody 1.560 ng/ml
# [20] = target: BCMA on BCMA-expressing cells (H929 / NCI-H929, MM1.S, U266, Daudi) (human) (UniProt Q02223); assay: flow cytometry on MM1.S cells; antibody 3.130 ng/ml
# [21] = target: recombinant BCMA (R&D Systems, catalog no. 193-BC) (human) (UniProt Q02223); assay: competitive ELISA, plate-bound BCMA; Ab 0.200 ng/mL; competitor APRIL 0.00 ng/mL
# [22] = target: recombinant BCMA (R&D Systems, catalog no. 193-BC) (human) (UniProt Q02223); assay: competitive ELISA, plate-bound BCMA; Ab 0.020 ng/mL; competitor APRIL 31.25 ng/mL
# [23] = target: BCMA on BCMA-expressing cells (H929 / NCI-H929, MM1.S, U266, Daudi) (human) (UniProt Q02223); assay: flow cytometry on H929 cells; antibody 3.130 ng/ml
# [24] = target: BCMA on BCMA-expressing cells (H929 / NCI-H929, MM1.S, U266, Daudi) (human) (UniProt Q02223); assay: flow cytometry on H929 cells; antibody 0.195 ng/ml
# [25] = target: recombinant BCMA (R&D Systems, catalog no. 193-BC) (human) (UniProt Q02223); assay: competitive ELISA, plate-bound BCMA; Ab 200.000 ng/mL; competitor APRIL 250.00 ng/mL
# [26] = target: recombinant BCMA (R&D Systems, catalog no. 193-BC) (human) (UniProt Q02223); assay: competitive ELISA, plate-bound BCMA; Ab 20.000 ng/mL; competitor APRIL 500.00 ng/mL
Binder,A450-A570 [1],A450-A570 [2],A450-A570 [3],A450-A570 [4],MFI [5],MFI [6],MFI [7],A450-A570 [8],MFI [9],A450-A570 [10],A450-A570 [11],A450-A570 [12],A450-A570 [13],MFI [14],A450-A570 [15],A450-A570 [16],A450-A570 [17],A450-A570 [18],MFI [19],MFI [20],further results
B1,0.108,2.42,0.0651,0.0578,1960,7340,2010,0.0614,2930,0.057,0.828,2.47,0.0618,52900,0.062,0.413,0.778,0.0528,5060,2070,A450-A570 [21]: 0.0676; A450-A570 [22]: 0.0551; MFI [23]: 5140; MFI [24]: 5010; A450-A570 [25]: 2.21; A450-A570 [26]: 0.253
B2,0.0895,2.29,0.0643,0.0616,2040,3180,2060,0.0615,2180,0.063,0.418,2.44,0.0617,14100,0.0607,0.148,0.482,0.058,5100,2110,A450-A570 [21]: 0.0708; A450-A570 [22]: 0.0622; MFI [23]: 5170; MFI [24]: 5030; A450-A570 [25]: 0.969; A450-A570 [26]: 0.112
